Experimental data reported in EP4413995A1 (Université de Franche-Comté, dated 2024).

Tests used:
[1] = target: T1, CD123 (recombinant, soluble, analyte of the Octet assay) (human, UniProt P26951 19-305); assay: BLI (Octet, ForteBio), antibody immobilized on streptavidin biosensors, CD123 in solution (row of 25 nM)
T1 chain: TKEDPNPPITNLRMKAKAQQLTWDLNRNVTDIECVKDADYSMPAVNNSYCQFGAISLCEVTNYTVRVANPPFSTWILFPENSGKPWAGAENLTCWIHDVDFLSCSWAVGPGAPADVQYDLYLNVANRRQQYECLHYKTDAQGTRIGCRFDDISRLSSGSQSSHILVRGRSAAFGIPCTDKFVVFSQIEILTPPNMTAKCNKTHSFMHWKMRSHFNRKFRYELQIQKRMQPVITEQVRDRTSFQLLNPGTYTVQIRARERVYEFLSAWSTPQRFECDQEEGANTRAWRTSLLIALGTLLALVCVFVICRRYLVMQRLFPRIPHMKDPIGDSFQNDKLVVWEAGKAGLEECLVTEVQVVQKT

[2] = target: T1, CD123 (recombinant, soluble, analyte of …); assay: BLI (Octet, ForteBio), antibody immobilized on streptavidin biosensors, CD123 in solution (row of 6.25 nM)
[3] = target: T1, CD123 (recombinant, soluble, analyte of …); assay: BLI (Octet, ForteBio), antibody immobilized on streptavidin biosensors, CD123 in solution (row of 12.5 nM)
[4] = target: T1, CD123 (recombinant, soluble, analyte of …); assay: BLI (Octet, ForteBio), antibody immobilized on streptavidin biosensors, CD123 in solution (row of 50 nM)

B1: 18B4D5 (antibody, V domains shown)
VH: EVKLQESGPGLVKPSQSLSLTCTVTGYSITSDYTWNWIRQFPGNKLEWMGYISFSGSTSYNPSLKSRLSITRDTSKNQFFLQLNSVTTEDTATYYCARGLDYWGQGTTLTVSS
VL: DIVMTQSPAIMSASLGERVTMTCTASSSISSSYLYWYQQKPGSSPKLWIYSTSNLASGVPARFSGSGSGTSYSLTISSMEAEDAATYYCHQLHRSPWTFGGGTKLEIKR
Kd [1]: < 1 pM
koff [1]: < 1e-07 s⁻¹
kon [1]: 122000 M⁻¹ s⁻¹
Kd [2]: < 1 pM
koff [2]: < 1e-07 s⁻¹
kon [2]: 122000 M⁻¹ s⁻¹
Kd [3]: < 1 pM
koff [3]: < 1e-07 s⁻¹
kon [3]: 122000 M⁻¹ s⁻¹
Kd [4]: < 1 pM
koff [4]: < 1e-07 s⁻¹
kon [4]: 122000 M⁻¹ s⁻¹
